Test results reported in publication PMC12985673.
Where “and” joins values, the source holds several entries; their conditions need not be identical. Equal values may be shown once. Read-outs that look alike come from different tables or passages of the source. Each block holds one substance with its values, some of them ahead of it.

Key:
[1] = target: NRXβ1 ECD (amino acids 81 to 311), His-tagged, labelled with Alexa Fluor 488 (mouse) (UniProt P0DI97); assay: fluorescence polarisation; 8 nM NRXβ1 ECD–AF488, NL2 or NL2mut titrated 15 nM to 8 μM; 20 mM Hepes pH 7.5, 150 mM NaCl, 1 mM MgCl2, 0.5 mM CaCl2; triplicate; Hill fit with shared slope; apparent
[2] = target: Neurexin β1 ECD (UniProt P58400); settings: cited from earlier work
Sequence of Neurexin β1 ECD (P58400 51-396): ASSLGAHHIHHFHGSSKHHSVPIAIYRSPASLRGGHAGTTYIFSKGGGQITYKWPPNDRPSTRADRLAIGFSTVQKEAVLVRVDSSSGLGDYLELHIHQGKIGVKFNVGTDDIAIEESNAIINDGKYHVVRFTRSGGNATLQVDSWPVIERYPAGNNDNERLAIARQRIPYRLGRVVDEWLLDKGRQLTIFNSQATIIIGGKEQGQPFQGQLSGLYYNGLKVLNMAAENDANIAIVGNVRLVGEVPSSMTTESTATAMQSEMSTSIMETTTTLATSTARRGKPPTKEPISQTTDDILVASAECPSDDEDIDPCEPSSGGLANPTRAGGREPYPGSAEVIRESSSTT

[3] = target: Neurexin β1 (UniProt P58400); settings: cited from earlier work
Sequence of Neurexin β1 (P58400 51-396): as above

[4] = target: Neurexin β1 (UniProt P58400); settings: cited from earlier work; remark: listed apart in the source
[5] = target: Neurexin β1 ECD (UniProt P58400); settings: cited from earlier work; remark: listed apart in the source
[6] = target: full-length neuroligin 2 (NL2), mouse, without the splice insert at site A (mouse) (UniProt Q69ZK9); assay: proteoliposome colocalisation (TIRF microscopy); as a5 at 2x protein: NL2 1:5 and NRXβ1 1:10 protein:lipid (w/w); all detections
Sequence of full-length neuroligin 2 (NL2), mouse, without the splice insert at site A (mouse) (Q69ZK9 other isoform, or with tags, fused parts or gaps): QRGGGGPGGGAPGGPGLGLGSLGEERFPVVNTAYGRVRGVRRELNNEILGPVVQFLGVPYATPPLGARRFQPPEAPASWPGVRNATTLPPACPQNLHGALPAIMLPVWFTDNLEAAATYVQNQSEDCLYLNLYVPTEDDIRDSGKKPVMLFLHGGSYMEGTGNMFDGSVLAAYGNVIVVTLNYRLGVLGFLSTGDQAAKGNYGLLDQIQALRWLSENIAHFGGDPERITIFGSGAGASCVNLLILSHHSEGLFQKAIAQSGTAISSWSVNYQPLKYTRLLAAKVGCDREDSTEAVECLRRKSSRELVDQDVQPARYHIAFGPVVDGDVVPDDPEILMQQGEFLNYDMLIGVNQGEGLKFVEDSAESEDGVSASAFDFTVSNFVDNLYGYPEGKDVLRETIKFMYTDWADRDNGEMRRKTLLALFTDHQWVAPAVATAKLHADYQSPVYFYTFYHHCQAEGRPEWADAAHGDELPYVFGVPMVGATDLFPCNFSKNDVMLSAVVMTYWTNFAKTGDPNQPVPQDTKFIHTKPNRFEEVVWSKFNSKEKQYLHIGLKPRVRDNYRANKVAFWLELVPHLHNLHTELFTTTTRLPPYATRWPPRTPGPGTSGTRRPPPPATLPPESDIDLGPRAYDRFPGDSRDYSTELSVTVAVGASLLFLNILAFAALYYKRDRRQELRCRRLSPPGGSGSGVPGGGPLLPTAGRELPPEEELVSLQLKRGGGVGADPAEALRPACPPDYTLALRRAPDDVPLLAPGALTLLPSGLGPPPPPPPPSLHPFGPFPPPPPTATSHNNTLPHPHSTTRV

[7] = target: full-length neuroligin 2 (NL2), mouse, without the splice insert at site A (mouse) (UniProt Q69ZK9); assay: as above; remark: listed apart in the source
[8] = target: full-length neuroligin 2 (NL2), mouse, without the splice insert at site A (mouse) (UniProt Q69ZK9); assay: cryo-EM structure; NL2 and NRXβ1 purified separately, mixed at one-to-one molar ratio, ~20 μM (monomer) each, on ice 10 min; only the ECDs resolved; Ca2+ at the interface

Sequence of Neuroligin 3 (Q9NZ94 38-709): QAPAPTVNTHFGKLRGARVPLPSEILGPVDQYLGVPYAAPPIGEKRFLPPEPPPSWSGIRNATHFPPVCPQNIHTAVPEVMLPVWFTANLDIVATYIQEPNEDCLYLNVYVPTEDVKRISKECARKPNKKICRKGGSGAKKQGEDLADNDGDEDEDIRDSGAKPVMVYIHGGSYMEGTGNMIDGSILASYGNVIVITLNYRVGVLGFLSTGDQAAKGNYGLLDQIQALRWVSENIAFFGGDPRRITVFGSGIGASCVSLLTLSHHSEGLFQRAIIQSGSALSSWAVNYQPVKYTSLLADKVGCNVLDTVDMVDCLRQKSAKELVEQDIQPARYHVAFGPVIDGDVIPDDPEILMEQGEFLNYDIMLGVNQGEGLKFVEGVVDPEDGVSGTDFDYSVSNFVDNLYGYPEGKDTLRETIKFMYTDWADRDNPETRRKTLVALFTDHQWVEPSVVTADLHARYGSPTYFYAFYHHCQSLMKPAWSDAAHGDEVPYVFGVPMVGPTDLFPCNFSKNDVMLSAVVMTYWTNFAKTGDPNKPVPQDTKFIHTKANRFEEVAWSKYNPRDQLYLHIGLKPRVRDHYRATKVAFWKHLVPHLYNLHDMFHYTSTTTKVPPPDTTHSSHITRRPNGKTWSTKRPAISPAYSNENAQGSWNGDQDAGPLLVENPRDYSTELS
Sequence of Neuroligin 2 (Q8NFZ4 15-677): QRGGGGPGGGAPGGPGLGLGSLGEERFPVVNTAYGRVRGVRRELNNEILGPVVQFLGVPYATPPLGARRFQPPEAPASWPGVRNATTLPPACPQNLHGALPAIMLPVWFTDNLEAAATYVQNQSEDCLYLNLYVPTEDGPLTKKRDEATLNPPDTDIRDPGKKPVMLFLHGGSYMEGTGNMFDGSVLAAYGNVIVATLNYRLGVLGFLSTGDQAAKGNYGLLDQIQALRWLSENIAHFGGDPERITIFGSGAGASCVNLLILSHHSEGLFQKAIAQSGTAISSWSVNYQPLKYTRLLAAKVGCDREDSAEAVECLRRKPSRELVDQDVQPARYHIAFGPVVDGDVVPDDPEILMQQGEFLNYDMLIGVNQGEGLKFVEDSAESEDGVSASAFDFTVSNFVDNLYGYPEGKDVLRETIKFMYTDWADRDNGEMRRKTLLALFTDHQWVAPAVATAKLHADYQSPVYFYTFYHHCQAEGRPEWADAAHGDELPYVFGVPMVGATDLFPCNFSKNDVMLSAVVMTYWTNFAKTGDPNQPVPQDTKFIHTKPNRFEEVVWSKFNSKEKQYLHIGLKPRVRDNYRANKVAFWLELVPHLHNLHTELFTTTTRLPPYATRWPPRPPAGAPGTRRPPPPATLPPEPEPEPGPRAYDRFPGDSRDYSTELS
Sequence of Neuroligin 1 ECD (Q8N2Q7 46-717): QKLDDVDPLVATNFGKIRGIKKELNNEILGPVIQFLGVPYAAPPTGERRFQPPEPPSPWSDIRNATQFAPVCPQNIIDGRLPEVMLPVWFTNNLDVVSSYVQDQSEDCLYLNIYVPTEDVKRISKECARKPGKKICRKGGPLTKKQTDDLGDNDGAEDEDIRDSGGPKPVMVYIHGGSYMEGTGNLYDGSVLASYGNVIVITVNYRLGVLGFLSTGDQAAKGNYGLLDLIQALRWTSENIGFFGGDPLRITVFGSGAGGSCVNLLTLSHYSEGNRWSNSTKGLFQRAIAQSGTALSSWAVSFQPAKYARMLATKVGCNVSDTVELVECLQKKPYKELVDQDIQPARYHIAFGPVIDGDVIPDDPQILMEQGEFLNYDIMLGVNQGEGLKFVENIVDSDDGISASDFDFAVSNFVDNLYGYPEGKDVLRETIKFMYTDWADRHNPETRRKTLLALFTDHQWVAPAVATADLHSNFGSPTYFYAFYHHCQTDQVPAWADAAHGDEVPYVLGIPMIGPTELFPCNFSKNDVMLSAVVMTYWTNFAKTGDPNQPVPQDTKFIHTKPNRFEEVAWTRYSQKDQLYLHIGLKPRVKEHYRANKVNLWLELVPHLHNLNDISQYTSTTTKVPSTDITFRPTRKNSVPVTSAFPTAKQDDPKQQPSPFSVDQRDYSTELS
Sequence of full-length neuroligin 2 (NL2), mouse, without the splice insert at site A (Q69ZK9 other isoform, or with tags, fused parts or gaps): as the sequence (Q69ZK9 other isoform, or with tags, fused parts or gaps) above

fold increase of affinity against wild-type NL2 [1]: 30 fold
Substance: NL2 H279Y G282K mutant (from UniProt Q69ZK9 170-836) (receptor)

Substance: Neuroligin 1 ECD (from UniProt Q8N2Q7)
Kd [2]: 10 nM

Substance: Neuroligin 2 (from UniProt Q8NFZ4)
Kd [3]: 10000 nM

Substance: Neuroligin 3 (from UniProt Q9NZ94)
Kd [4]: 1000 nM

Substance: Neuroligin 4 ECD (from UniProt Q8N0W4)
Kd [5]: 100 nM

fraction of vesicles colocalised [6]: > 0.5 | fraction of vesicles colocalised [7]: 0.6 | stoichiometry N (NRXβ1 per NL2 dimer) [8]: 2 and 1
Substance: full-length neurexin β1 (NRXβ1), mouse, without the insert at splice site 4 (from UniProt P0DI97 47-468) (receptor)

Kd [1]: 6000 nM
Substance: full-length neuroligin 2 (NL2), mouse, without the splice insert at site A (from UniProt Q69ZK9 15-836) (receptor)
